Assay results reported in paper PMC3245869 (Molecular cell, 2008).

Target: T1, Rnr2-Rnr4 heterodimer (ribonucleotide reductase small subunit) (S. cerevisiae, UniProt P09938 1-399; P49723 1-345)
T1 sequence (looked up) 1: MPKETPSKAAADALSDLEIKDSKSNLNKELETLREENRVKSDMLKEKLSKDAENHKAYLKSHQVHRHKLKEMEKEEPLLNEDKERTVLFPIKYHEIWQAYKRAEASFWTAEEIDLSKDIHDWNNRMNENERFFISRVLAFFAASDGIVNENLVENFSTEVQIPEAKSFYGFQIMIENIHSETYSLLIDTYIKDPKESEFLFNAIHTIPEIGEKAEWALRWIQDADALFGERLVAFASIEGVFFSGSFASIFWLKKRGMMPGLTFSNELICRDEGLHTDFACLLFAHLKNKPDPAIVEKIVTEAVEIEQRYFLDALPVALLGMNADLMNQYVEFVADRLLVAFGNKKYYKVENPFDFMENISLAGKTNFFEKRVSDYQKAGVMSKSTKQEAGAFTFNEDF
T1 sequence (looked up) 2: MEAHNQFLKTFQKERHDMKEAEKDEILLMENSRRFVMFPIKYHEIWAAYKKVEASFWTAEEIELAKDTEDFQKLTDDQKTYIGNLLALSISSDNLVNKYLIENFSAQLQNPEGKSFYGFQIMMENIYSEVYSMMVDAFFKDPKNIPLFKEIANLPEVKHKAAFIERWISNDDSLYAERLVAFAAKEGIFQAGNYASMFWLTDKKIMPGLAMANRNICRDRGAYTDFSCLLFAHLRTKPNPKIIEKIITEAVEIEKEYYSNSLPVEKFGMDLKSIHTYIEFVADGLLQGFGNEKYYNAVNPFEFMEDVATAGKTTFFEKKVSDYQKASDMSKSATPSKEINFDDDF
Assay: SPR

B1: Recombinant wild-type Dif1 protein (His6-Dif1) (natural protein, S. cerevisiae, UniProt O13577 1-133, looked up)
chain: MDAQLEWASSLVPKRQLQQQQQQQEQQQQQQQDFHKDQLMTVGMRIRQRVDQGYASRTPSTSDASLQPGVIRDYSSVIVPQFTRSPLPTANSLPPMLINQRTMSTEASSLEKWDVAEPAAEHETMVNGSKRRL
Kd: 600 nM
